Test results taken from publication PMC6385209.

Assay: mouse vaccination, whole-cell ELISA for CPS14-specific IgG
Details: glycan gained; control: unglycosylated ComP

## ComP: CPS14-ComP bioconjugate
  other: immunogenicity: increases
